Target: T1, SARS-CoV-2 receptor-binding domain (RBD), wild type (SARS-CoV-2, wild type (GenBank MN908947), UniProt P0DTC2)
T1 construct: also called WT
Assay: BLI
Settings: both partners purified

Binder | Kd [nM]
XGv026 (antibody, V domains shown) VH: EVQLVESGGGVIQPGGSLRLSCAASEIIVSSNYMNWVRQAPGKGLEWVSVIYPGGSSFYADSVKGRFTISRDNSKNTLYLQMNSLRVEDTAVYYCARDSPHRPGTIWGQGTLVVVSS VL: DIQMTQSPSSLSASVGDRVTITCRASQDINNYLNWYQQKPGKAPKLLIYDAFTLEAGVPSRFSGARFGTDFTFTISSLQPEDIATYYCHQCDNLPCTFGGGTKVEIK | 0.23
XGv013 (antibody, V domains shown) VH: EVQLVESGGGLVQPGGSLRLSCAASGITVSSNYMTWVRQAPGKGLEWVSVIYAGGSTFYADSVKGRFTISRDNSKNTLYLQMNSLRVEDTAVYYCARDLVDYGMDVWGQGTTVTVSS VL: DIQLTQSPSFLSASVGDRVTITCRASQGIASYLAWYQQKPGKAPKLLIYAASTLQSGVPTRFSGSGSGTEFTLTIRSLQPEDSATYYCQHPSGHPPTFGGGTKVEI | 0.26
XGv018 (antibody, V domains shown) VH: QVQLVESGGGVVQPGRSLRLSCAASGFTFSTYGMHWVRQAPGKGLEWVAVILNDGSGKLYADSVKGRFTISRDNSKNTLYLQMSSLRAEDTAVYFCARDQGELVTYFDYWGQGTLVTVSS VL: DIQMTQSPSSLSASVGDRVTITCRASQSISRYLNWYQHKPGKAPKLLIYTTSNLQSGVPSRFSGSGSGTDFTLTISSLHPEDFATYYCQQSYNTPSWTFGQGTKVEIK | 0.21
XGv016 (antibody, V domains shown) VH: QVQLVQSGTEVRKPGASVTVSCKASGYTFTTYHMHWVRRAPGQGLEWMGIIDPGTGGASYPQKFRGRVTLTRDTSTNTVYMELSSLRFQDTAIYYCARAEGSSWLGWFDPWGQGTLVTVSS VL: QSVLTQPPSASGTPGQRVSISCSGSSSNIGTNYVYWYQQLPGTAPKLLIYKNNQRPSGVPDRFSGSKSGTSASLAISGLRSEDEADYFCASWDNGLSGSGWVFGGGTKLTV | 0.16
XGv042 (antibody, V domains shown) VH: QITLKESGPTLVKPTQTLTLTCTFSGLSMTTSGVGVGWIRQPPGKALEWLALIYWDDDKRYSPFLKSRLTITKDTSKNQVVLTMTNMDPADTGTYFCAHHTIPSIFDHWGQGTLVTVSS VL: QSALTQPASVSGSPGQSITISCTATSSDVGVYNYVSWYQQYPGKAPRLIIFEVSNRPSGVSSRFSGSKSGYTASLTISGLQTDDEADYYCSSYTTTSTVFGGGTKLTVL | 0.16
XGv038 (antibody, V domains shown) VH: QVQLVESGGGVVQPGRSLRLSCAASGFTFNNYGIHWVRQAPGKGLEWVAVIWYDGTNKYYADSVKGRFTISRDNSKNTVYLQMNSLRAEDTAVYYCARDYEITMAAPDYWGQGTLVTVSS VL: DVVMTQSPLSLPVTLEQPASISCRSSQSLVSSDGNTYLNWFQQRPGQSPRRLIYKVSNRDSGVPDRFSGSGSGTDFTLKINRVEAEDVGIYYCMQGSHWPPTFGGGTKVEIK | 0.43
XGv030 (antibody, V domains shown) VH: EVQLVESGGGLVQPGGSLRLSCAASGFSFSTYSLNWVRQAPGKGLEWVSYISSSSITIYYAHSVKGRFTISRDDAKNSLYLQVNNLRDEDTAVYYCARVLGFSDYVWGSYQRGLYGMDVWGQGTTVSVSS VL: QSALTQPASVSGSPGQSIAISCTGTSSDVGGYDFVSWYQQHPGKAPKLLIYDVTNRPSGISNRFSGSKSGNTASLTISGLQTEDEADYYCSSFTSSNTLPFVFGTGTTVTVL | 1.3

Reference: PMC11637481, “A third dose of inactivated vaccine augments the potency, breadth, and duration of anamnestic responses against SARS-CoV-2” (Protein & Cell, 2024)
